How the values were obtained:
Factor H, P08603 = biological target: T1, Factor H, P08603
T1 chain: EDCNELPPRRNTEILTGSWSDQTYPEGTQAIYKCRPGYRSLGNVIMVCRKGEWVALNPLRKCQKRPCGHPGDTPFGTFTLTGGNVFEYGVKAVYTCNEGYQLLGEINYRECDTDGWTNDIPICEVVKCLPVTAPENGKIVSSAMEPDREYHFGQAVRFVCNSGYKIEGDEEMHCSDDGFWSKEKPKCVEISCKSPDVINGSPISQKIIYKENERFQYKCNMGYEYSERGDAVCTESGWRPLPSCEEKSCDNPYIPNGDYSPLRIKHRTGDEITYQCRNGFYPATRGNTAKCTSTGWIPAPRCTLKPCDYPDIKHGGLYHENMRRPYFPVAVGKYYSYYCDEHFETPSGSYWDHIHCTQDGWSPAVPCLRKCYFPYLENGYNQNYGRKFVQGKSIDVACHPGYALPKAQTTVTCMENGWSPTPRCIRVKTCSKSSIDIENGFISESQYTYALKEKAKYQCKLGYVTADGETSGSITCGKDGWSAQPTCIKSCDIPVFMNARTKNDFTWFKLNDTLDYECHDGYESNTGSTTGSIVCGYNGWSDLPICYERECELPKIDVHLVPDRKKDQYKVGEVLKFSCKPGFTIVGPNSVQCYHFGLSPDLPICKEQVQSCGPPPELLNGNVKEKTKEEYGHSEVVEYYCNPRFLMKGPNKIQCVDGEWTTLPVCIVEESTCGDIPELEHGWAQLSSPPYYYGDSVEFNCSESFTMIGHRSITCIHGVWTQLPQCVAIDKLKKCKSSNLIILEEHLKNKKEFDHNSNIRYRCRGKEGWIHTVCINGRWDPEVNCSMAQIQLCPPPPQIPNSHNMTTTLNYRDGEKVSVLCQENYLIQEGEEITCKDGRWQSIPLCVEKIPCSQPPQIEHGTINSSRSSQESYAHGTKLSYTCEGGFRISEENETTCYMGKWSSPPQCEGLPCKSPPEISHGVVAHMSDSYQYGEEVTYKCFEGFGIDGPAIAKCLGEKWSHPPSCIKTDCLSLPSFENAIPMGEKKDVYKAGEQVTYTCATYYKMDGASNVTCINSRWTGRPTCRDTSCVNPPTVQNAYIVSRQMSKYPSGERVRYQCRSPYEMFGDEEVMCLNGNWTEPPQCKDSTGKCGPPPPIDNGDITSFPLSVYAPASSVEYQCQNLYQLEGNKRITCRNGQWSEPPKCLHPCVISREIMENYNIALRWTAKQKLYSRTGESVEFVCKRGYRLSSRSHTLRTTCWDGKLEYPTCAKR

[1] = biological target: T2, C-Reactive protein, P02741
T2 chain: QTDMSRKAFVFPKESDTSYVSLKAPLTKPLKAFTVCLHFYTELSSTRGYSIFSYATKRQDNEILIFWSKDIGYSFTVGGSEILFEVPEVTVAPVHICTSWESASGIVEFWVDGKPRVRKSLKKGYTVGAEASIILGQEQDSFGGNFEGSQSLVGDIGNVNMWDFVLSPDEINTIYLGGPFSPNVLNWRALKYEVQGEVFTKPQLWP

C1 inhibitor, P05155 = biological target: T3, C1 inhibitor, P05155
T3 chain: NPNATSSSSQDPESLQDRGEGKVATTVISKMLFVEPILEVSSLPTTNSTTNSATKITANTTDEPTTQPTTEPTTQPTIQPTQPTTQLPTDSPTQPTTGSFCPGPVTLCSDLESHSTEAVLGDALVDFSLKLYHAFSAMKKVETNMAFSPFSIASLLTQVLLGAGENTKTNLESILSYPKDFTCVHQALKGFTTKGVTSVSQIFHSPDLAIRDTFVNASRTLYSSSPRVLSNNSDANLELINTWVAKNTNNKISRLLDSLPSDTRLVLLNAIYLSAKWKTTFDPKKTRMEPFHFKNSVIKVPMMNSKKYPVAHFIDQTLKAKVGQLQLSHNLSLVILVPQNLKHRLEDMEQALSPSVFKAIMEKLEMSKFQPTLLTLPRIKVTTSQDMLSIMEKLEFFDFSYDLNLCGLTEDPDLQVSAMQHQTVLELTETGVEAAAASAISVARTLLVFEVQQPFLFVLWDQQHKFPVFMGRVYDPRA

[2] = biological target: T4, C4-Binding protein, P04003
T4 chain 1: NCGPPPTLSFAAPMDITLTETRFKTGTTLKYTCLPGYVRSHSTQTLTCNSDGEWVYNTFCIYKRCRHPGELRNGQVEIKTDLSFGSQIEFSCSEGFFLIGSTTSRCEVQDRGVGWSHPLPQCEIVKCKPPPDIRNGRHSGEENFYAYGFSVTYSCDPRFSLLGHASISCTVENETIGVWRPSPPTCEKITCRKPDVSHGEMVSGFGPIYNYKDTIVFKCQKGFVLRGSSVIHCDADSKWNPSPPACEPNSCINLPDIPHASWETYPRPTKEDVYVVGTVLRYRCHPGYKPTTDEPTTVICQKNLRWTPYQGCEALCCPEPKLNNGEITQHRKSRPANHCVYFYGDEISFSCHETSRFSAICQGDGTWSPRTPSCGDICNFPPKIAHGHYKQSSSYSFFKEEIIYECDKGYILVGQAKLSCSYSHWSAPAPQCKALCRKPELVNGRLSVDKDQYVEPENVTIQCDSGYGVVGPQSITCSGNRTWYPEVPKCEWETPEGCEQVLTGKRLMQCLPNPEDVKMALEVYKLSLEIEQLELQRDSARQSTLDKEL
T4 chain 2: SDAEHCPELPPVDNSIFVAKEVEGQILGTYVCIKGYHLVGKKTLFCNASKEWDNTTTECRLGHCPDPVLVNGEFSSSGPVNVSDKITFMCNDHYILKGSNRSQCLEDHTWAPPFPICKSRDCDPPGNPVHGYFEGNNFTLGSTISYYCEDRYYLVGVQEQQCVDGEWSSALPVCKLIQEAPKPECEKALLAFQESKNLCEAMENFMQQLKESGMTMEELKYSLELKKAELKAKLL

Sequence of Factor B, P00751 (P00751 26-764): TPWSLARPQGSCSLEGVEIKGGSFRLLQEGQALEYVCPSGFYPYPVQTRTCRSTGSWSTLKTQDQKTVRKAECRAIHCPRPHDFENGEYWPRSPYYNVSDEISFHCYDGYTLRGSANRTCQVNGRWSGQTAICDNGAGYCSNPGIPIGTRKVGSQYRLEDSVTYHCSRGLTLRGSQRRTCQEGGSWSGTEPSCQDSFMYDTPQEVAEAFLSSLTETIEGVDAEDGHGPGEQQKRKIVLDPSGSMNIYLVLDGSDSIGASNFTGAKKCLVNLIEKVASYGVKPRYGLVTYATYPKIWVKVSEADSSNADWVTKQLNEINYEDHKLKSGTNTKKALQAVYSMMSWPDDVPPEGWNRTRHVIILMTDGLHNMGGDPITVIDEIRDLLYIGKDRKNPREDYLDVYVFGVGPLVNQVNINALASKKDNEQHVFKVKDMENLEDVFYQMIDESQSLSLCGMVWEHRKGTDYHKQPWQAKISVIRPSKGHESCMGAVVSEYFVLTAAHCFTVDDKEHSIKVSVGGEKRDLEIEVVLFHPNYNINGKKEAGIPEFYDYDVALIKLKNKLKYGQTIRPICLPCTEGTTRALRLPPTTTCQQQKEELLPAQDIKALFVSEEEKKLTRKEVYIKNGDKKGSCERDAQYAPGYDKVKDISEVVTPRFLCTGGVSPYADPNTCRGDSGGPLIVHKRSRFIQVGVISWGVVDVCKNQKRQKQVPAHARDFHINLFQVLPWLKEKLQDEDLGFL
Sequence of Properidin, P27918 (P27918 28-469): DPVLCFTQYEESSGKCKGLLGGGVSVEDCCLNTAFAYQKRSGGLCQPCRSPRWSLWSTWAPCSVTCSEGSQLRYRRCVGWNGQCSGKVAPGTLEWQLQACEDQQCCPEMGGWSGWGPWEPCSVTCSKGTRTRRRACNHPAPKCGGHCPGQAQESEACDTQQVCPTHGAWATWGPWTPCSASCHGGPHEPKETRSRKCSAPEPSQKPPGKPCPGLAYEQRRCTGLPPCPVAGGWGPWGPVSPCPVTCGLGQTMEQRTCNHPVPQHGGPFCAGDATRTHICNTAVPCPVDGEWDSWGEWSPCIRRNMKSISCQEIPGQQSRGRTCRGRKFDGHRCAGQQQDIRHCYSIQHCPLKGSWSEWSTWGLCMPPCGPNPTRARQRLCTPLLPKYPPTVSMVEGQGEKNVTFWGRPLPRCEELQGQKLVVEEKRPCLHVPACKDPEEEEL

B1: PrtV(Pro-B) (protein)
chain: DTVNGSESVKTEATQASGSSVQDNATAKTTVTTNSNSSNNVSNVQTDTVKEAATSNVDSVASQNQATTAQQAKTTADTADQTVPPTTYKDHVKGNVQTAWDNGYKGQGMVVAVIDSGADTNHKDFSKAPESPAISKEDADKKISELGYGKYASEKFPFVYNYASRDNNWVKDDGPDASEHGQHVAGIIGADGQPNGNERYAVGVAPETQLMMMRVFNDQFADENTDDIAQAIYDAVKLGANVIQMSLGQGVAAANLNDVEQKAVEYATQHGVFVSISASNNGNSASVTGEEVPYKPGGADGNFEPFSSSTVANPGASRNAMTVAAENSVVGAGDDMADFSSWGPLQDFTLKPDVSAPGVSVTSTGNDNRYNTMSGTSMAGPFNAGVAALVMQRLKATTNLNGADLVQATKALIMNTAKPMTQQGYDTPVSPRRQGAGEIDAGAATESPVYVVAADGTSSVSLRKVGDSTQFALTFKNLSDKDQTYTFDDFGGGLTEVRDADTGTFHDVYLAGAHVYGNKTVTVKAGQSATYNFTLSLTGLKENQLVEGWLRFVGNDGQNQLVVPYLAYYGDMTSEDVFDKAANQEGTVYGGNYFVNEDNYPRGVADEDSLKALVNLEGNYNWQQVAKLYQDGKVAFSPNADGKSDLLKPYAFVKQNLKDLKVEVLDKSGKVVRVVADEQGLDKSYYESGVNKDVTLSVSMRNNPNTLAWDGKVYDDKAGEMVNAADGEYTYRYVATLYNDGVNKVQTADYPVVIDTTAPVLSNVKYDAATHTLSFDYKDTGSGFTDYSYAVVKVNDKTFGYKLNDGKNSKFLDAAKTSGTFKAVLGSDTLAALTAAKNALSVAVSDVADNTSTVTLLVNGNNDATTKVSVWNATNGLELDQSSPDYQAATSTYNLRGNATSDFYYNGALVQVDNSGNFVVPVSTSDTAVVFTSDAAGKNVVYKLNTATPKAVFAWQVNNTVKENFGIVLDTVVSNNKDDVVVQAAVTKGDNVEAYARDYFTGAVYKADVKDGLATFHVKVTNNSGRTVLLGWTEVVGPTFNDVQRTSANGVYLGVDTDTENPTPAPAFTSADQLGTNVVQEKADSATIGNPGDLPGHSLKDLTTRADANPDIHFDYLKDNDYNWVGAQAVKDGVYNPSTQVFTLTGKVDPNVKSLVVLGDSYNEDDPVNKVNLNSDGTFSFQFHTAPTSQRPVAYIYTKDDGSTTRGTMELILDTVLPTLSLNNVANLQLDSNGDYQVYTNNKDFSVSGEATDNLDGYRFFFNGDNDYREFHNSGVNFVAEAHQDGSTVTNPYPAYKFSKTFNLADATGETTHVYTLSVVDLTGNTVTRKFYVHY
What does the source list for B1?
protein cleavage assay (SDS-PAGE) (IL-1β): has activities against; protein cleavage assay (SDS-PAGE) (IP-10): has activities against; proteolytic activity (SDS-PAGE) (C5, P01031): None of the complement proteins tested show evidence of breakdown; proteolytic activity (SDS-PAGE) (Factor B, P00751): None of the complement proteins tested show evidence of breakdown; proteolytic activity (SDS-PAGE) (C4): None of the complement proteins tested show evidence of breakdown; proteolytic activity (SDS-PAGE) (Factor H, P08603): None of the complement proteins tested show evidence of breakdown; proteolytic activity (SDS-PAGE) [1]: None of the complement proteins tested show evidence of breakdown; protein cleavage assay (SDS-PAGE) (IL-8): has activities against; proteolytic activity (SDS-PAGE) (C1 inhibitor, P05155): None of the complement proteins tested show evidence of breakdown; proteolytic activity (SDS-PAGE) (Properidin, P27918): None of the complement proteins tested show evidence of breakdown; proteolytic activity (SDS-PAGE) [2]: None of the complement proteins tested show evidence of breakdown

Source: patent US20210386836
